Assay results from PMC4853763.

Biological target: E6/e6ap complex with the wt e6ap(1-16) peptide construct (HPV16 | human) (UniProt P03126)
Experiment: ITC

Q: “p53 core (DNA binding) domain (from UniProt P04637 94-311) (domain or fragment)” was tested. Which dH did it give?
A: -19.1 kcal/mol

Q: And the stoichiometry N?
A: 0.516
